According to PMC11177981 (2024):

B1: FLAG-GLUT4 (human full length) expressed in HEK293T cells [human] / retinoic acid inducible gene I (RIG-I), endogenous in HEK293T cells [human (endogenous in HEK293T)] (parent complex)
chain 1: MPSGFQQIGSEDGEPPQQRVTGTLVLAVFSAVLGSLQFGYNIGVINAPQKVIEQSYNETWLGRQGPEGPSSIPPGTLTTLWALSVAIFSVGGMISSFLIGIISQWLGRKRAMLVNNVLAVLGGSLMGLANAAASYEMLILGRFLIGAYSGLTSGLVPMYVGEIAPTHLRGALGTLNQLAIVIGILIAQVLGLESLLGTASLWPLLLGLTVLPALLQLVLLPFCPESPRYLYIIQNLEGPARKSLKRLTGWADVSGVLAELKDEKRKLERERPLSLLQLLGSRTHRQPLIIAVVLQLSQQLSGINAVFYYSTSIFETAGVGQPAYATIGAGVVNTVFTLVSVLLVERAGRRTLHLLGLAGMCGCAILMTVALLLLERVPAMSYVSIVAIFGFVAFFEIGPGPIPWFIVAELFSQGPRPAAMAVAGFSNWTSNFIIGMGFQYVAEAMGPYVFLLFAVLLLGFFIFTFLRVPETRGRTFDQISAAFHRTPSLLEQEVKPSTELEYLGPDEND
chain 2: MTTEQRRSLQAFQDYIRKTLDPTYILSYMAPWFREEEVQYIQAEKNNKGPMEAATLFLKFLLELQEEGWFRGFLDALDHAGYSGLYEAIESWDFKKIEKLEEYRLLLKRLQPEFKTRIIPTDIISDLSECLINQECEEILQICSTKGMMAGAEKLVECLLRSDKENWPKTLKLALEKERNKFSELWIVEKGIKDVETEDLEDKMETSDIQIFYQEDPECQNLSENSCPPSEVSDTNLYSPFKPRNYQLELALPAMKGKNTIICAPTGCGKTFVSLLICEHHLKKFPQGQKGKVVFFANQIPVYEQQKSVFSKYFERHGYRVTGISGATAENVPVEQIVENNDIIILTPQILVNNLKKGTIPSLSIFTLMIFDECHNTSKQHPYNMIMFNYLDQKLGGSSGPLPQVIGLTASVGVGDAKNTDEALDYICKLCASLDASVIATVKHNLEELEQVVYKPQKFFRKVESRISDKFKYIIAQLMRDTESLAKRICKDLENLSQIQNREFGTQKYEQWIVTVQKACMVFQMPDKDEESRICKALFLYTSHLRKYNDALIISEHARMKDALDYLKDFFSNVRAAGFDEIEQDLTQRFEEKLQELESVSRDPSNENPKLEDLCFILQEEYHLNPETITILFVKTRALVDALKNWIEGNPKLSFLKPGILTGRGKTNQNTGMTLPAQKCILDAFKASGDHNILIATSVADEGIDIAQCNLVILYEYVGNVIKMIQTRGRGRARGSKCFLLTSNAGVIEKEQINMYKEKMMNDSILRLQTWDEAVFREKILHIQTHEKFIRDSQEKPKPVPDKENKKLLCRKCKALACYTADVRVIEECHYTVLGDAFKECFVSRPHPKPKQFSSFEKRAKIFCARQNCSHDWGIHVKYKTFEIPVIKIESFVVEDIATGVQTLYSKWKDFHFEKIPFDPAEMSK

Variants of: B1
Assay: co-IP (IP: FLAG) with immunoblot band densitometry; HEK293T cells; FLAG-GLUT4 plasmids, endogenous RIG-I; Vector, pcDNA3.1-FLAG; read off a plot

**Q.** How did the response turn out when chain 1 MPSGFQQIGSEDGEPPQQRVTGTLVLAVFSAVLGSLQFGYNIGVINAPQKVIEQSYNETWLGRQGPEGPSSIPPGTLTTLWALSVAIFSVGGMISSFLIGIISQWLGRKRAMLVNNVLAVLGGSLMGLANAAASYEMLILGRFLIGAYSGLTSGLVPMYVGEIAPTHLAGALGTLNQLAIVIGILIAQVLGLESLLGTASLWPLLLGLTVLPALLQLVLLPFCPESPRYLYIIQNLEGPARKSLKRLTGWADVSGVLAELKDEKRKLERERPLSLLQLLGSRTHRQPLIIAVVLQLSQQLSGINAVFYYSTSIFETAGVGQPAYATIGAGVVNTVFTLVSVLLVERAGRRTLHLLGLAGMCGCAILMTVALLLLERVPAMSYVSIVAIFGFVAFFEIGPGPIPWFIVAELFSQGPRPAAMAVAGFSNWTSNFIIGMGFQYVAEAMGPYVFLLFAVLLLGFFIFTFLRVPETRGRTFDQISAAFHRTPSLLEQEVKPSTELEYLGPDEND [chain 1 R169A] was run?
**A.** ~1.1 band density ratio (RIG-I/GLUT4)
